Experimental data reported in US9822148B2, “EGFR-binding peptide” (HOYA CORPORATION, priority 2012, dated 2017).
Where no end group is shown, it is not given here. The star is where a group is joined. FITC = O=C1OC2(c3ccc(O)cc3Oc3cc(O)ccc32)c2ccc(NC(=S)*)cc21; Ahx = NCCCCCC(=O)O

Assays:
A-431 cells = test: In vitro imaging with FITC labeled peptide, confocal microscope, A-431 cells; assay type: cell-based, human; conditions: 100 μM FITC labeled peptide, 37° C., 1 hour
Protocol: A-431 cells were inoculated in a glass bottom dish to be 20×10^4 cells/dish and MCF7 cells were inoculated in a glass bottom dish to be 75×10^4 cells/dish, and cultured at 37° C. in the condition of CO2 for 24 hours. After culturing each kind of the cells for a specified time, EGF was added to have a concentration of 100 ng/mL and the mixture was cultured for 6 days. Thereafter, the culture solution in the dish was removed and washed with 1000 μL of a growth medium at 37° C. ten times. An aminocaproic acid linker was connected to an N terminal of a peptide and the peptide in which FITC was labeled in the opposite side of the connected linker (Pep055-F, Pep032-F ([…] (peptide irrelevant to binding to EGFR): SEQ ID No. 54)) (purity 80.6%, HPLC grade, AnyGen, Korea) was prepared to be 100 μM in a growth medium, and 1 mL of the medium was added and incubated at 37° C. for 1 hour. A staining fluid was removed and washed with 1 mL of a growth medium at 37° C. three times and thereto was finally added 1 mL of the medium. For observation, fluorescent observation was carried out by irradiating an exciting light laser with a wavelength of 488 nm using a confocal microscope (Leica SP2).

rhEGFR = target: T1, rhEGFR (Homo sapiens, UniProt P00533); test: Competition test between phage and synthetic peptide on solid phase rhEGFR; assay type: binding; conditions: for binding of the I-1010 phage to a rhEGFR (ratio of an input titer/output titer) on adding the peptide: peptide added at each concentration, up to 100 μM
T1 construct: purchased R&D Systems
Protocol: A rhEGFR that is a target protein was added to a 96-well microplate to be 1 μg/well, and stood still at 4° C. overnight to be thus formed into a solid phase. A protein solution was removed, 300 μl of a blocking buffer was added and the mixture was incubated at 37° C. for 1 hour to thus block the wells. After removal of the blocking buffer, the wells were washed three times with 200 μl of 0.5% TBST washing solution, and finally 100 μl of 0.5% TBST was added thereto. […] A reaction only of the I-1010 phage without adding both of the peptides was employed as a control. […] In the reaction, the mixture was gently shaken at room temperature for 1 hour. The reaction solution was removed and the wells were washed with 200 μl of 0.5% TBST ten times. 100 μl of 0.2 M glycine-HCl (pH 2.2) was then added to the wells and stirred by pipetting, thereafter gently shaking at room temperature for 10 minutes. The eluate was collected to a microtube from the wells and added with 15 μl of 1M Tris-HCl (pH 9.1) to be neutralized and a target binding phage solution was thus obtained. The binding ability of the collected phage was examined by a measurement of a titer.

[1] = I-1010 phage 1×10^10 PFU, FIG. 6

Substance | stainability of A-431 cells (A-431 cells) | binding of the I-1010 phage to a rhEGFR (ratio of an input titer/output titer) on adding the peptide (rhEGFR; [1]) | also measured
Pep055-F: Pep055 with an aminocaproic acid linker at the N terminal, labeled with FITC ({FITC-Ahx}-WHLSDLWQNAWH) | Staining of the cytoplasm of the A-431 cells was observed |  | 
Pep057: synthetic peptide (SEQ ID No. 7) of the I-1015 phage displayed peptide (LHQSEWMYVDIH; I-1015) |  |  | binding of the I-1015 phage to EGFR on adding the peptide (rhEGFR; FIG. 8): inhibit
YLPLWRLSESHM ({FITC-Ahx}-YLPLWRLSESHM) [Pep032-F, reference compound] | scarcely stained |  | 
GAASRTYLHELI (Random peptide) [Pep018, reference compound] |  | maintained | 
Pep056: synthetic peptide (SEQ ID No. 4) of the I-1012 phage displayed peptide (FHDWLPEVSPPD; I-1012) |  |  | binding of the I-1012 phage to EGFR on adding the peptide (rhEGFR; FIG. 7): inhibit
Pep055: synthetic peptide obtained by artificially synthesizing the I-1010 phage displayed peptide (SEQ ID No. 2) (WHLSDLWQNAWH; I-1010) |  | inhibited concentration-dependently | peptide concentration from which the ratio of an input titer/output titer of the I-1010 phage dropped (rhEGFR; [1]): ≥ 1 µM
